Drawing on publication PMC11405016, this text covers co-purified mScarlet fluorescence relative to WT Prom1 (% of WT Prom1) for one substance.

The target of this experiment is Prominin 1 (Prom1) W795R, human S1 isoform, C-terminally Strep-tagged (human). Description: co-IP; EVs from co-transfected Expi293 cells, purified and solubilised with 1% DDM (25 mM HEPES-NaOH pH 7.8, 150 mM NaCl, 5 mM CaCl2); Prom1-Strep captured on StrepTactinXT 4Flow resin, 1 hr at 4°C; co-purified mNeonGreen or mScarlet fluorescence on the beads measured by montaged epifluorescence imaging, normalised to mTagBFP2-Strep on the resin.

Take “Prominin 1 (Prom1) W795R, human S1 isoform, C-terminally Strep-tagged (natural protein)”: the co-purified mScarlet fluorescence relative to WT Prom1 (% of WT Prom1) came out at 60.
